IntAct's records for PubMed 23949442

B1: SNARE-associated protein Snapin (Homo sapiens), O95295 (parent)
chain: MAGAGSAAVSGAGTPVAGPTGRDLFAEGLLEFLRPAVQQLDSHVHAVRESQVELREQIDNLATELCRINEDQKVALDLDPYVKKLLNARRRVVLVNNILQNAQERLRRLNHSVAKETARRRAMLDSGIYPPGSPGK

Variants of: B1
Conditions: with snp25_rat Snap25, P60881
Sequence of snp25_rat Snap25, P60881 (P60881 whole entry, looked up): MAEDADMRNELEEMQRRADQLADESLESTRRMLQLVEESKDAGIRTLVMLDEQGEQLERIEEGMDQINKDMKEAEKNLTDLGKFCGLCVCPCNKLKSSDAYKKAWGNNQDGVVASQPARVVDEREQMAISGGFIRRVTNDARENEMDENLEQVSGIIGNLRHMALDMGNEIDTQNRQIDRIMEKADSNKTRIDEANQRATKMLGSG
MAGAGSAAVSGAGTPVAGPTGRDLFAEGLLEFLRPAVQQLDSHVHAVRESQVELREQIDNLATELCRINEDQKVALDLDPYVKKLLNARRRVVLVNNILQNAQERLRRLNHSVAKEDARRRAMLDSGIYPPGSPGK [T117D] was tested, and the “effect of a mutation on the interaction” value was “decreasing interaction”.
